# Data reported in patent US20120258121A1 (OMEROS, published 2012).
# T1: human FN14 on the cell surface (FN14-transfected cells or cancer cell lines intrinsically expressing FN14, … (human, UniProt Q9NP84 28-129))
# T1 construct: The cells in the assays are human cancer lines or FN14-transfected cells (293F/FN14); also called TWEAKR; CD266
# T1 sequence: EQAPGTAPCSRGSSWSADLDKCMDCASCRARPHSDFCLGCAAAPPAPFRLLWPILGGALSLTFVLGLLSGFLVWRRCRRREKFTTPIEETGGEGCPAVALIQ
# T2: recombinant human FN14-Fc fusion protein (rhFN14-Fc; R&D Systems) (human, UniProt Q9NP84 28-79)
# T2 construct: Bought reagent; Detected with PECy5-labeled anti-human IgG(Fc); also called soluble FN14; PECy5-labelled soluble antigen; not shown: Fc part of the bought fusion protein (detected with anti-human IgG(Fc))
# T2 sequence: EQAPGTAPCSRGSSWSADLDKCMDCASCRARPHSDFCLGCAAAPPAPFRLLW
# Experiments:
# [1] = molecular target: T1, human FN14 on the cell surface …; assay: binding affinity; method not restated in Example 3 (saturation binding on FN14-expressing cells by the methods of Example 1)
# [2] = molecular target: T1, human FN14 on the cell surface …; assay: as above; remark: listed apart in the source
# [3] = molecular target: T2, recombinant human FN14-Fc fusion …; assay: saturation binding of PECy5-labelled soluble antigen to FN14-specific DTLacO cells, flow cytometry
# Experimental: (§1) Saturation binding kinetics were determined by either staining FN14-specific DTLacO cells with various concentrations of fluorescent-labeled soluble antigen, or by staining FN14-transfected cells or cancer cell lines intrinsically expressing FN14 with various concentrations of the recombinant chimeric anti-FN14 mAbs.
# [4] = molecular target: T1, human FN14 on the cell surface …; assay: saturation binding of recombinant antibody on target-expressing cells
# Experimental: as §1
# [5] = molecular target: T2, recombinant human FN14-Fc fusion …; assay: saturation binding of soluble antigen to DTLacO[FS24] cells, flow cytometry
# [6] = molecular target: T1, human FN14 on the cell surface …; assay: saturation binding of recombinant antibody on target-expressing cells (A375 melanoma)
# Experimental: as §1
binder,measurement,setting,value
"Humanized PS4: H.1/L.9 (antibody, human IgG1, lambda, also called humanized PS4 antibody H.1/L.9) heavy: not shown light: ALTQPPSVSVSPGQTARITCSGGGSSYYAGSYYYGWYQQKPGQAPVTVIYYNNKRPSGIPERFSGSLSGSTNTLTISGVQAEDEADYYCGSIDNSGAAFGGGTKLTVLGQPKAAPSVTLFPPSSEELQANKATLVCLISDFYPGAVTVAWKADSSPVKAGVETTTPSKQSNNKYAASSYLSLTPEQWKSHRSYSCQVTHEGSTVEKTVAPTECS",Kd,[1],0.24 nM
"Humanized FS24 (antibody, human IgG1, lambda, V domains shown, also called hFS24; humanized FS24 antibody) VH: EVQLVESGGGLVQPGGSLRLSCAASGFTFSSYDMAWVRQAPGKGLEWVAGIDYDGSGRRYAPAVKGRATISRDNSKNTLYLQMNSLRAEDTAVYYCTKCGYTGGCDYEGGYIDAWGQGTLVTVSS VL: ELTQPPSVSVSPGQTARITCSGGGSSYYAGSYYYGWYQQKPGQAPVTLIYYNNKRPSGIPERFSGSLSGSTNTLTISGVQAEDEADYYCGSIDNSGAAFGGGTKLTVLG",Kd,[2],0.21 nM
"surface immunoglobulin of the FN14-specific DTLacO cell population FS17 (antibody, V domains shown, Chicken surface IgM on DTLacO cells) VH: AVTLDESGGGLQTPGGALSLVCKASGFTFSSYDMAWVRQEPGKGLEWVAGIDDDGSGRRYAPAVKGRATISRDNGQSTLRLQLNNLRAEDTGTYYCTKCAYTGGCDYEGGYIDAWGHGTEVIVSS VL: ALTQPASVSANPGETVKITCSGGGSSYYAGSYYYGWYQQKAPGSAPVTLIYYNNKRPSDIPSRFSGSLSGSTNTLTITGVRADDEAVYFCGSIDNSGAAFGAGTTLTVL",Kd,[3],0.7 nM
"chimeric PS4 antibody (parent of the humanized PS4 versions) (antibody, human IgG1, lambda, V domains shown, also called Chicken PS4; original chimeric antibody PS4) VH: AVTLDESGGGLQTPGGALSLVCKASGFTFSSYDMFWVRQEPGKGLEWVAGIDDDGSGRRYAPAVKGRATISRDNGQSTLRLQLNNLRAEDTGTYYCTKCAYSSGCDYEGGYIDAWGHGTEVIVSS VL: ALTQPASVSANPGETVKITCSGGGSSYYAGSYYYGWYQQKSPGSAPVTVIYYNNKRPSDIPSRFSGSLSGSTNTLTITGVRADDEAVYFCGSIDNSGAAFGAGTTLTVLG",Kd,[1],0.21 nM
"recombinant chimeric monoclonal antibody PS4B (chicken V regions, human IgG1 / lambda constant regions) (antibody, V domains shown) VH: AVTLDESGGGLQTPGGALSLVCKASGFTFSSYDMFWVRQEPGKGLEWVAGIDDDGSGRRYAPAVKGRATISRDNGQSTLRLQLNNLRAEDTGTYYCTKCAYSSGCDYEGGYIDAWGHGTEVIVSS VL: ALTQPASVSANPGETVKITCSGGGSSYYAGSYYYGWYQQKSPGSAPVTVIYYNNKRPSDIPSRFSGSLSGSTNTLTITGVRADDEAVYFCGSIDNSGAAFGAGTTLTVLG",Kd,[4],0.35 nM
"surface immunoglobulin of the FN14-specific DTLacO cell population FS24 (antibody, V domains shown, Chicken surface IgM on DTLacO cells; also called DTLacO[FS24]) VH: AVTLDESGGGLQTPGGALSLVCKASGFTFSSYDMAWVRQEPGKGLEWVAGIDYDGSGRRYAPAVKGRATISRDNGQSTLRLQLNNLRAEDTGTYYCTKCGYTGGCDYEGGYIDAWGHGTEVIVSS VL: ALTQPSSVSANPGETVKITCSGGGSSYYAGSYYYGWYQQKAPGSAPVTLIYYNNKRPSDIPSRFSGSLSGSTNTLTITGVRADDEAVYFCGSIDNSGAAFGAGTTLTVL",Kd,[5],0.44 nM
same,Kd,[3],0.67 nM
"surface immunoglobulin of the FN14-specific DTLacO cell population FS10 (antibody, V domains shown, Chicken surface IgM on DTLacO (DT40-derived) cells) VH: AVTLDESGGGLQTPGGALSLVCKASGFTFSSYDMAWVRQEPGKGLEWVAGIDDDGSGRRYAPAVKGRATISRDNGQSTLRLQLNNLRAEDTGTYYCTKCAYSSGCDYEGGYIDAWGHGTEVIVSS VL: ALTQPASVSANPGETVKITCSGGGSSYYAGSYYYGWYQQKAPGSALVTLIYYNNKRPSDIPSRFSGSLSGSTNTLTITGVRADDEAVYFCGSADNSGAAFGAGTTLTVL",Kd,[3],25 nM
"recombinant chimeric monoclonal antibody FS24 (chicken V regions, human IgG1 / lambda constant regions) (antibody, V domains shown, also called mAb FS24; Chicken FS24) VH: AVTLDESGGGLQTPGGALSLVCKASGFTFSSYDMAWVRQEPGKGLEWVAGIDYDGSGRRYAPAVKGRATISRDNGQSTLRLQLNNLRAEDTGTYYCTKCGYTGGCDYEGGYIDAWGHGTEVIVSS VL: ALTQPSSVSANPGETVKITCSGGGSSYYAGSYYYGWYQQKAPGSAPVTLIYYNNKRPSDIPSRFSGSLSGSTNTLTITGVRADDEAVYFCGSIDNSGAAFGAGTTLTVLG",Kd,[6],0.21 nM
same,Kd,[2],0.26 nM
"recombinant chimeric monoclonal antibody PS4A (chicken V regions, human IgG1 / lambda constant regions) (antibody, V domains shown) VH: AVTLDESGGGLQTPGGALSLVCKASGFTFSSYDMFWVRQEPGKGLEWVAGIDDDGSGRRYAPAVKGRATISRDNGQSTLRLQLNNLRAEDTGTYYCTKCAYSSGCDYEGGYIDAWGHGTEVIVSS VL: ALTQPSSVSANPGETVKITCSGGGSSYYAGSYYYGWYQQKAPGSAPVTLIYYNNKRPSDIPSRFSGSLSGSTNTLTITGVRADDEAVYFCGSIDNSGAAFGAGTTLTVLG",Kd,[4],0.21 nM
"recombinant chimeric monoclonal antibody FS10 (chicken V regions, human IgG1 / lambda constant regions) (antibody, V domains shown, expressed in 293F cells; also called mAb FS10) VH: AVTLDESGGGLQTPGGALSLVCKASGFTFSSYDMAWVRQEPGKGLEWVAGIDDDGSGRRYAPAVKGRATISRDNGQSTLRLQLNNLRAEDTGTYYCTKCAYSSGCDYEGGYIDAWGHGTEVIVSS VL: ALTQPASVSANPGETVKITCSGGGSSYYAGSYYYGWYQQKAPGSALVTLIYYNNKRPSDIPSRFSGSLSGSTNTLTITGVRADDEAVYFCGSADNSGAAFGAGTTLTVLG",Kd,[4],25 nM
"recombinant chimeric monoclonal antibody FS17 (chicken V regions, human IgG1 / lambda constant regions) (antibody, V domains shown, also called mAb FS17) VH: AVTLDESGGGLQTPGGALSLVCKASGFTFSSYDMAWVRQEPGKGLEWVAGIDDDGSGRRYAPAVKGRATISRDNGQSTLRLQLNNLRAEDTGTYYCTKCAYTGGCDYEGGYIDAWGHGTEVIVSS VL: ALTQPASVSANPGETVKITCSGGGSSYYAGSYYYGWYQQKAPGSAPVTLIYYNNKRPSDIPSRFSGSLSGSTNTLTITGVRADDEAVYFCGSIDNSGAAFGAGTTLTVLG",Kd,[4],0.36 nM
"Humanized PS4: H.1/L.1 (antibody, human IgG1, also called first humanized version of PS4) heavy: not shown light: SYELTQPPSVSVSPGQTARITCSGGGSSYYAGSYYYGWYQQKPGQAPVTVIYYNNKRPSGIPERFSGSLSGSTNTLTISGVQAEDEADYYCGSIDNSGAAFGGGTKLTVLGQPKAAPSVTLFPPSSEELQANKATLVCLISDFYPGAVTVAWKADSSPVKAGVETTTPSKQSNNKYAASSYLSLTPEQWKSHRSYSCQVTHEGSTVEKTVAPTECS",Kd,[1],15 nM
